Experimental data reported in PMC9243169.

Legend:
[1] = target: T1, N-myristoylated 4-mer lipopeptide Myr-GAAL; assay: size-exclusion chromatography of in vitro assembled heavy chain/β2m/ligand complex; conditions: chain shown with the change; parent: est. 160; read off a plot
T1 chain: GAAL

[2] = target: T2, LANTVATL peptide; assay: as above; conditions: chain shown with the change; parent: est. 160; read off a plot
T2 chain: LANTVATL

B1: HLA-C∗14:02 heavy chain, ectodomain (soluble form) S9Y (protein)
chain: AGSHSMRYFYTSVSRPGRGEPRFIAVGYVDDTQFVRFDSDAASPRGEPRAPWVEQEGPEYWDRETQKYKRQAQTDRVSLRNLRGYYNQSEAGSHTLQWMFGCDLGPDGRLLRGYDQSAYDGKDYIALNEDLRSWTAADTAAQITQRKWEAAREAEQRRAYLEGTCVEWLRRYLENGKETLQRAEHPKTHVTHHPVSDHEATLRCWALGFYPAEITLTWQWDGEDQTQDTELVETRPAGDGTFQKWAAVVVPSGEEQRYTCHVQHEGLPEPLTLRWEP
**Q.** Which response [1] does the source give for B1 here?
**A.** Its response is 30 mAU.

**Q.** What about the response [2] of the same binder?
**A.** Its response is 180 mAU.
